# Square brackets hold non-standard residues; d marks the D form. Ends that are not written are not given here.
# B1: SEQ ID NO: 172 (peptide)
# peptide: [dR]KKR[dR]QRR[dR]RP[dK]RP[dA]TLNL[dF]-NH2
# modifications: N-terminus assumed
# SMILES: CC(C)C[C@H](NC(=O)[C@H](CC(N)=O)NC(=O)[C@H](CC(C)C)NC(=O)[C@@H](NC(=O)[C@@H](C)NC(=O)[C@@H]1CCCN1C(=O)[C@H](CCCNC(=N)N)NC(=O)[C@@H](CCCCN)NC(=O)[C@@H]1CCCN1C(=O)[C@H](CCCNC(=N)N)NC(=O)[C@@H](CCCNC(=N)N)NC(=O)[C@H](CCCNC(=N)N)NC(=O)[C@H](CCCNC(=N)N)NC(=O)[C@H](CCC(N)=O)NC(=O)[C@@H](CCCNC(=N)N)NC(=O)[C@H](CCCNC(=N)N)NC(=O)[C@H](CCCCN)NC(=O)[C@H](CCCCN)NC(=O)[C@H](N)CCCNC(=N)N)[C@@H](C)O)C(=O)N[C@H](Cc1ccccc1)C(N)=O
# Legend:
# Assay in all cases: AlphaScreen
# hJNK3 = molecular target: hJNK3
# hJNK2 = molecular target: hJNK2
# hJNK1 = molecular target: hJNK1
binder,measurement,setting,value
B1,IC50,hJNK3,102 nM
same,IC50,hJNK2,54.7 nM
same,IC50,hJNK1,722 nM
[dD][dQ][dS][dR][dP][dV][dQ][dP][dF][dL][dN][dL][dT][dT][dP][dR][dK][dP][dR][dP][dP][dR][dR][dR][dQ][dR][dR][dK][dK][dR]G [SEQ ID NO: 197],IC50,hJNK3,1290 nM
same,IC50,hJNK2,802 nM
same,IC50,hJNK1,24400 nM

# — US20200093883A1 (published 2020)
